Data reported in PMC11661448, “Molecular basis for plasma membrane recruitment of PI4KA by EFR3” (Science Advances, 2024).

Key:
Settings in all cases: both partners purified
[1] = biological target: T1, PI4KA/TTC7B/FAM126A ΔC (PI4KA complex) (human, UniProt P42356 1-2102; Q86TV6 1-843; Q9BYI3 1-308); test: SEC; Superose 6 Increase in 150 mM NaCl, 20 mM imidazole pH 7.0, 5% glycerol, 0.5 mM TCEP; 7.19 uM PI4KA complex with 61.8 uM EFR3A, or 6.78 uM TTC7B-FAM126A with 102.3 uM EFR3A; peaks checked by SDS-PAGE
T1 construct: phosphatidylinositol 4 kinase III alpha (PI4KA), human, full length; TTC7B, human, full length; FAM126A, human, residues 1 to 308 (lacks the disordered C terminus); Dimer of heterotrimers; A His-Strep tag was cleaved with TEV protease; also called PI4KA-TTC7B-FAM126A (1 to 308); PI4KA-TTC7B-FAM126A complex; source: Sf9 (MultiBac baculovirus), co-expressed, purified (HisTrap, StrepTrap, TEV …)

[2] = biological target: T2, TTC7B-FAM126A (1 to 308) (human, UniProt Q86TV6 1-843; Q9BYI3 1-308); test: BLI; His-EFR3A (wild type or mutant) at 200 nM loaded on anti-penta-His tips, dipped in TTC7B-FAM126A (wild type or mutant) at 500 nM; 25°C, 20 mM HEPES pH 7.5, 150 mM NaCl, 0.01% BSA, 0.002% Tween-20; maximum response compared with wild type
T2 construct: N-terminal His10-2x Strep-TEV tag from the pOPT vector, cleaved with TEV; also called TTC7B-FAM126A ΔC; TTC7B-FAM126A dimer; source: E. coli BL21 DE3 C41, co-expressed, purified (HisTrap, StrepTrap, TEV cleavage, SEC)

[3] = biological target: T2, TTC7B-FAM126A (1 to 308); test: BLI; His-MBP-EFR3A (721 to 791) at 200 nM loaded on anti-penta-His tips, TTC7B-FAM126A titrated; His-MBP responses subtracted; 25°C, 20 mM HEPES pH 7.5, 150 mM NaCl, 0.01% BSA, 0.002% Tween-20; KD by one site specific nonlinear regression of the response against concentration

B1: EFR3A (721 to 791) (domain or fragment, human, UniProt Q14156 721-791, looked up)
chain: SNTEEITFEALKKAIDTSGMEEQEKEKRRLVIEKFQKAPFEEIAAQCESKANLLHDRLAQILELTIRPPPS
notes: EFR3A, human, residues 721 to 791; No tag cleavage is described for this protein; it was eluted from StrepTrap with desthiobiotin; also called EFR3A C terminus; EFR3A C terminal fragment; source: E. coli BL21 DE3 C41, purified (HisTrap, StrepTrap, SEC); not shown: His10, N-terminal, kept
B1: binds [1].

B2: EFR3A (721 to 791) A734R (domain or fragment, human, UniProt Q14156 721-791, looked up)
chain: SNTEEITFEALKKRIDTSGMEEQEKEKRRLVIEKFQKAPFEEIAAQCESKANLLHDRLAQILELTIRPPPS
notes: EFR3A, human, residues 721 to 791; source: E. coli BL21 DE3 C41, purified (HisTrap, StrepTrap, SEC); not shown: His10, N-terminal, kept
B2: binds [2].

B3: EFR3A (721 to 791) F728A (domain or fragment, human, UniProt Q14156 721-791, looked up)
chain: SNTEEITAEALKKAIDTSGMEEQEKEKRRLVIEKFQKAPFEEIAAQCESKANLLHDRLAQILELTIRPPPS
notes: as for B2
B3: binds [2].

B4: EFR3A (721 to 791) I763A (domain or fragment, human, UniProt Q14156 721-791, looked up)
chain: SNTEEITFEALKKAIDTSGMEEQEKEKRRLVIEKFQKAPFEEAAAQCESKANLLHDRLAQILELTIRPPPS
notes: as for B2
B4: binds [2].

B5: EFR3A (721 to 791) K732E (domain or fragment, human, UniProt Q14156 721-791, looked up)
chain: SNTEEITFEALEKAIDTSGMEEQEKEKRRLVIEKFQKAPFEEIAAQCESKANLLHDRLAQILELTIRPPPS
notes: as for B2
B5: binds [2].

B6: His-MBP-EFR3A (721 to 791) (domain or fragment, human, UniProt Q14156 721-791, looked up)
chain: SNTEEITFEALKKAIDTSGMEEQEKEKRRLVIEKFQKAPFEEIAAQCESKANLLHDRLAQILELTIRPPPS
notes: source: E. coli BL21 DE3 C41, purified (HisTrap, StrepTrap, SEC); not shown: MBP, N-terminal, kept; His10, N-terminal, kept
Work on B6 yielded a Kd [3] of roughly 23.5 nM.
